# Measurements published in patent publication US20260049138A1 (Chugai, published 2026).
# Target: T1, CD3ε homodimer protein (human, UniProt P07766 23-126, limits assumed, sulfo-tag or biotin label in the ECL assays; amine-coupled to the chip in SPR)
# T1 construct: also called human CD3ε homodimer protein; CD3 (CD3ε)
# Test: SPR Biacore T200; CD3ε homodimer on CM4 chip;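 further: Single-residue variant antibodies injected as analyte over CD3ε homodimer immobilized by amine coupling, run at 25 °C in HBS-EP+ buffer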
# T1 sequence (P07766 23-126 limits assumed): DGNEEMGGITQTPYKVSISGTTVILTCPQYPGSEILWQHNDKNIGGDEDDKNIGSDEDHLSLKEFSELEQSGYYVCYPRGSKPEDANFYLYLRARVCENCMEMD
row,Binder,ratio of amounts bound Z=Y/X (altered form / CE115HA000)
1,"CE115HA000 Y97D one-arm antibody (antibody, human IgG1, kappa, L234A L235A, N297A, name in Kabat numbering) heavy: QVQLVESGGGVVQPGRSLRLSCAASGFTFSNAWMHWVRQAPGKGLEWVAQIKAKSNNYATYYAESVKGRFTISRDDSKNSLYLQMNSLKTEDTAVYYCRYVHDGAYYGVDAWGQGTTVTVSSASTKGPSVFPLAPSSKSTSGGTAALGCLVKDYFPEPVTVSWNSGALTSGVHTFPAVLQSSGLYSLSSVVTVPSSSLGTQTYICNVNHKPSNTKVDKKVEPKSCDKTHTCPPCPAPEAAGGPSVFLFPPKPKDTLMISRTPEVTCVVVDVSHEDPEVKFNWYVDGVEVHNAKTKPREEQYASTYRVVSVLTVLHQDWLNGKEYKCKVSNKALPAPIEKTISKAKGQPREPQVYTLPPSRCELTKNQVSLSCAVKGFYPSDIAVEWESNGQPENNYKTTPPVLDSDGSFFLVSKLTVDKSRWQQGNVFSCSVMHEALHNHYTQKSLSLSPDYKDDDDK EPKSSDKTHTCPPCPAPELLGGPSVFLFPPKPKDTLMISRTPEVTCVVVDVSHEDPEVKFNWYVDGVEVHNAKTKPREEQYNSTYRVVSVLTVLHQDWLNGKEYKCKVSNKALPAPIEKTISKAKGQPREPQVCTLPPSRDELTKNQVSLWCLVKGFYPSDIAVEWESNGQPENNYKTTPPVLDSDGSFFLYSKLTVDKSRWQQGNVFSCSVMHEALHNRYTQKSLSLSP light: DIVMTQSPLSLPVTPGEPASISCRSSQSLVHSNRNTYLHWYQQKPGQAPRLLIYKVSNRFSGVPDRFSGSGSGTDFTLKISRVEAEDVGVYYCGQGTQVPYTFGQGTKLEIKRTVAAPSVFIFPPSDEQLKSGTASVVCLLNNFYPREAKVQWKVDNALQSGNSQESVTEQDSKDSTYSLSSTLTLSKADYEKHKVYACEVTHQGLSSPVTKSFNRGEC",0.24
2,"CE115HA000 Y97G one-arm antibody (antibody, human IgG1, kappa, L234A L235A, N297A, name in Kabat numbering) heavy: QVQLVESGGGVVQPGRSLRLSCAASGFTFSNAWMHWVRQAPGKGLEWVAQIKAKSNNYATYYAESVKGRFTISRDDSKNSLYLQMNSLKTEDTAVYYCRYVHGGAYYGVDAWGQGTTVTVSSASTKGPSVFPLAPSSKSTSGGTAALGCLVKDYFPEPVTVSWNSGALTSGVHTFPAVLQSSGLYSLSSVVTVPSSSLGTQTYICNVNHKPSNTKVDKKVEPKSCDKTHTCPPCPAPEAAGGPSVFLFPPKPKDTLMISRTPEVTCVVVDVSHEDPEVKFNWYVDGVEVHNAKTKPREEQYASTYRVVSVLTVLHQDWLNGKEYKCKVSNKALPAPIEKTISKAKGQPREPQVYTLPPSRCELTKNQVSLSCAVKGFYPSDIAVEWESNGQPENNYKTTPPVLDSDGSFFLVSKLTVDKSRWQQGNVFSCSVMHEALHNHYTQKSLSLSPDYKDDDDK EPKSSDKTHTCPPCPAPELLGGPSVFLFPPKPKDTLMISRTPEVTCVVVDVSHEDPEVKFNWYVDGVEVHNAKTKPREEQYNSTYRVVSVLTVLHQDWLNGKEYKCKVSNKALPAPIEKTISKAKGQPREPQVCTLPPSRDELTKNQVSLWCLVKGFYPSDIAVEWESNGQPENNYKTTPPVLDSDGSFFLYSKLTVDKSRWQQGNVFSCSVMHEALHNRYTQKSLSLSP light: DIVMTQSPLSLPVTPGEPASISCRSSQSLVHSNRNTYLHWYQQKPGQAPRLLIYKVSNRFSGVPDRFSGSGSGTDFTLKISRVEAEDVGVYYCGQGTQVPYTFGQGTKLEIKRTVAAPSVFIFPPSDEQLKSGTASVVCLLNNFYPREAKVQWKVDNALQSGNSQESVTEQDSKDSTYSLSSTLTLSKADYEKHKVYACEVTHQGLSSPVTKSFNRGEC",0.18
